Results published in patent US10654893B2, “Self-assembling peptide compositions” (3-D MATRIX, LTD., priority 2014, dated 2020).

Test: Rheometer stress sweep test of peptide compositions at selected concentrations (AR500, 40 mm plates)
Type: physicochemical
Settings: 37° C.; for Loss Modulus (G″) / Storage Modulus (G′): at 1 Pa of oscillation stress, 10 rad/s; for Max. Viscosity (max η′): maximum in range of measured stress; for Yield Stress: stress sweep 10 rad/s
Protocol: The present Example further describes measurement of various rheological properties of certain peptide compositions at selected concentrations using a rheometer (AR500, TA Instruments) with 40 mm plates. A peptide composition (700 μL) was placed on the rheometer plate and excess composition was gently removed by Kimwipes. Measurements were performed after 2 minutes of relaxation time at 37° C. Storage modulus, loss modulus, and viscosity (η′) were measured at 37° C. with the plates placed at a measuring geometry gap of 300 μm, and stress sweep tests were performed at 0.1 Pa˜1000 Pa of oscillation stress with angular frequency at 10 rad/s.
Results are shown in FIGS. 2-4 for RADA16 (SEQ ID NO:1), IEIK13 (SEQ ID NO:3), and KLD12 (SEQ ID NO:2).

## Arg-Ala-Asp-Ala-Arg-Ala-Asp-Ala-Arg-Ala-Asp-Ala-Arg-Ala-Asp-Ala [RADA16]
Conc. 1%
  Loss Modulus (G″): 12 Pa
  Storage Modulus (G′): 74 Pa
  Max. Viscosity (max η′): 2.3 Pa · s
  Yield Stress: 15.9 Pa
Conc. 1.5%
  Loss Modulus (G″): 30 Pa
  Storage Modulus (G′): 158 Pa
  Max. Viscosity (max η′): 3.4 Pa · s
  Yield Stress: 20.0 Pa
Conc. 2%
  Loss Modulus (G″): 39 Pa
  Storage Modulus (G′): 217 Pa
  Max. Viscosity (max η′): 4.0 Pa · s
  Yield Stress: 31.6 Pa
Conc. 2.5%
  Loss Modulus (G″): 53 Pa
  Storage Modulus (G′): 352 Pa
  Max. Viscosity (max η′): 5.6 Pa · s
  Yield Stress: 50.1 Pa
